Source: patent publication US20100330649A1

Columns and labels:
[1] = biological target: His8-cytb5R (soluble form of human cytochrome b5 reductase with N-terminal His8 tag) (human) (UniProt P00387); experiment: cell-based or functional assay
[2] = biological target: His8-cytb5-sd (human cytochrome b5 soluble domain with N-terminal His8 tag) (UniProt P00167)
[3] = biological target: His8-MBP-fl-cytb5 fusion protein

UniProt P00167, sequence (P00167 1-97): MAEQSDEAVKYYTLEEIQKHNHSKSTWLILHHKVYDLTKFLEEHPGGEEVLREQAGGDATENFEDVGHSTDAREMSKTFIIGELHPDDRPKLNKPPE
UniProt P00387, sequence (P00387 24-301): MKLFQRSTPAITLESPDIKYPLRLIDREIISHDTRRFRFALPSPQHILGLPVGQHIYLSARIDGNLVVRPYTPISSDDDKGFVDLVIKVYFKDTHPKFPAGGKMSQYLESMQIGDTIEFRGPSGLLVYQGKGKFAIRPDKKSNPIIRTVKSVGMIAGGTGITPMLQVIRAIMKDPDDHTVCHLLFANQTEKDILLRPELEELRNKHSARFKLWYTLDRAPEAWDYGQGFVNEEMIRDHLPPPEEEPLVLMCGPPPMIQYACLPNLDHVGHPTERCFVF

For “His8-cytb5-sd (human cytochrome b5 soluble domain with N-terminal His8 tag) (from UniProt P00167 1-97)”, which V/K, µM^-1 s^-1 (steady-state reduction of cytb5 by His8-cytb5R with NADH) [1] is on record?
Its V/K, µM^-1 s^-1 (steady-state reduction of cytb5 by His8-cytb5R with NADH) is 5e+06 M⁻¹ s⁻¹.

What does the source list for “His8-cytb5R (soluble form of human cytochrome b5 reductase with N-terminal His8 tag)”?
Km, µM (steady-state reduction of cytb5 by His8-cytb5R with NADH) [2]: 5 µM; Vmax, s^-1 (steady-state reduction of cytb5 by His8-cytb5R with NADH, absorbance at 413 nm) [2]: 25 s⁻¹

B1: tobacco etch virus (TEV) protease (protein)
chain: GESLFKGPRDYNPISSTICHLTNESDGHTTSLYGIGFGPFIITNKHLFRRNNGTLLVQSLHGVFKVKNTTTLQQHLIDGRDMIIIRMPKDFPPFPQKLKFREPQREERICLVTTNFQTKSMSSMVSDTSCTFPSSDGIFWKHWIQTKDGQCGSPLVSTRDGFIVGIHSASNFTNTNNYFTSVPKNFMELLTNQEAQQWVSGWRLNADSVLWGGHKVFMSKPEEPFQPVKEATQLMNE
Which “site-specific proteolysis of the linker (SDS-PAGE)” value [3] does the source give for B1 here?
The value was “a satisfactory reaction was obtained at a ratio of His8-MBP-fl-cytb5 to TEV protease of 10:1 (reaction completed in 30 min)”.
